Results on four molecules are retold here after patent publication US20240009241A1 (published 2024).

In assay [1] the target is T1, EGFR L858R peptide on HLA-A*33:01 (human).
T1 peptide: HVKITDFGR
As to the kind of experiment: killing.

Assay [2] concerns the target T2, EGFR L858R peptide on HLA-A*33:03 (human).
T2 peptide: HVKITDFGR
The assay can be described thus: multimer staining.

B1: EGFRA33 TCRA33-32H (TCR, V domains shown)
Valpha: QKITQTQPGMFVQEKEAVTLDCTYDTSDQSYGLFWYKQPSSGEMIFLIYQGSYDEQNATEGRYSLNFQKARKSANLVISASQLGDSAMYFCAMREVFGNEKLTFGTGTRLTIIP
Vbeta: EEVAQTPKHLVRGEGQKAKLYCAPIKGHSYVFWYQQVLKNEFKFLISFQNENVFDETGMPKERFSAKCLPNSPCSLEIQATKLEDSAVYFCASSPPPSNTYNEQFFGPGTRLTVL
With B1, the binding result in assay [1] and in assay [2] was “recognises” in each case.

B2: EGFRA33 TCRA33-37-3 (TCR, V domains shown)
Valpha: AQKITQTQPGMFVQEKEAVTLDCTYDTSDQSYGLFWYKQPSSGEMIFLIYQGSYDEQNATEGRYSLNFQKARKSANLVISASQLGDSAMYFCAMREVFGNEKLTFGTGTRLTIIP
Vbeta: EEVAQTPKHLVRGEGQKAKLYCAPIKGHSYVFWYQQVLKNEFKFLISFQNENVFDETGMPKGRFSAKCLPNSPCSLEIQATKLEDSAVYFCASSHRSWKGGDTQPQHFGDGTRLSIL
Regarding B2, the binding result in assay [2] is recorded as “recognises”.

B3: EGFRA33 TCRA33-37-4 (TCR, V domains shown)
Valpha: AQKITQTQPGMFVQEKEAVTLDCTYDTSDPSYGLFWYKQPSSGEMIFLIYQGSYDQQNATEGRYSLNFQKARKSANLVISASQLGDSAMYFCAMRSGHLSNFGNEKLTFGTGTRLTIIP
Vbeta: EEVAQTPKHLVRGEGQKAKLYCAPIKGHSYVFWYQQVLKNEFKFLISFQNENVFDETGMPKGRFSAKCLPNSPCSLEIQATKLEDSAVYFCASSHRSWKGGDTQPQHFGDGTRLSIL
Take B3: the binding result in assay [2] was “recognises”.

B4: EGFRA33 TCR33-32L (TCR, V domains shown)
Valpha: not shown
Vbeta: GVIQSPRHEVTEMGQEVTLRCKPISGHNSLFWYRQTMMRGLELLIYFNNNVPIDDSGMPEDRFSAKMPNASFSTLKIQPSEPRDSAVYFCASRAGTGEVNEQFFGPGTRLTVL
In the case of B4, in assay [2], the binding result was “recognises”.
